Sequences and labels used below:
B1: Bok-L (Bcl-2-related ovarian killer, long form, rat) (other)
chain: MEVLRRSSVFAAEIMDAFDRSPTDKELVAQAKALGREYVHARLLRAGLSWSAPERASPAPGGRLAEVCTVLLRLGDELEQIRPSVYRNVARQLHIPLQSEPVVTDAFLAVAGHIFSAGITWGKVVSLYSVAAGLAVDCVRQAQPAMVHALVDCLGEFVRKTLATWLRRRGGWTDVLKCVVSTDPGFRSHWLVATLCSFGRFLKAAFFLLLPER
notes: also called full-length Bok protein
B2: BokADE (Bok-L G75A) (other)
chain: B1 chain with G75A
notes: also called BokADE: G 75 A
B3: BokGGGG (Bok-L 71 LLRL 74 to 71 GGGG 74) (other)
chain: B1 chain with L71G, L72G, R73G, L74G
notes: also called BokGGGG mutant
B4: BHRF1 (other)
chain: MAYSTREILLALCIRDSRVHGNGTLHPVLELAARETPLRLSPEDTVVLRYHVLLEEIIERNSETFTETWNRFITHTEHVDLDFNSVFLEIFHRGDPSLGRALAWMAWCMHACRTLCCNQSTPYYVVDLSVRGMLEASEGLDGWIHQQGGWSTLIEDNIPGSRRFSWTLFLAGLTLSLLVICSYLFISRGRH
B5: BokAAA (Bok-L 75 AAA 77) (other)
chain: B1 chain with G75A, D76A, E77A
notes: also called BokAAA: 75 AAA 77
B6: Bok-S (short splicing variant of Bok, rat) (other)
chain: MEVLRRSSVFAAEIMDAFDRSPTDKELVAQAKALGREYVHARLLRAGLSWSAPERASPAPGGRLAEVCTVLLRLGITWGKVVSLYSVAAGLAVDCVRQAQPAMVHALVDCLGEFVRKTLATWLRRRGGWTDVLKCVVSTDPGFRSHWLVATLCSFGRFLKAAFFLLLPER
notes: also called truncated Bok

Test [1] concerns the target T1, Mcl-1 (rat) (rat, UniProt Q9Z1P3 1-330). Description: yeast two-hybrid, yeast cell growth grade (++ prominent, + moderate).
Procedure: (§1) Specific binding of different protein pairs was evaluated based on the activation of GAL1-HIS3 and GAL4-lacZ reporter genes.
Test [2] deals with T1, Mcl-1 (rat). Description: yeast two-hybrid, mutant Bok-L-GAL4-AD vs GAL4-BD fusion.
Procedure: Yeast two-hybrid assay. […] After transformation of yeast cells, colonies containing different protein pairs were selected on plates lacking tryptophan and leucine. To test for specific protein-protein interactions, positive transformants were further selected for growth in media deficient for tryptophan, leucine and histidine but containing 5-30 mM 3-aminotriazole to inhibit endogenous histidine production. A minimum of five independent transformants containing each pair of fusion cDNAs was routinely analyzed.
The mutants included alanine substitutions at the highly conserved glycine 75 or glycine 75 plus flanking aspartic acid 76 and glutamic acid 77 (BokADE: G 75 A and BokAAA: 75 AAA 77). In addition, a glycine substitution was made for leucine 71 to leucine 74 (BokGGGG: 71 LLRL 74 to 71 GGGG 74).
For test [3], the target named is B1. Description: yeast two-hybrid, yeast cell growth grade (++ prominent, + moderate).
Procedure: as §1
Test [4] addresses T1, Mcl-1 (rat). Description: yeast two-hybrid, Bok-S-GAL4-AD vs GAL4-BD fusion.
The test “BHRF1” concerns the target B4. The experiment in a line: yeast two-hybrid, Bok-S-GAL4-AD vs GAL4-BD fusion.

Numbering of substitutions follows the chain as printed. Numbers in names are those of the source.

T1 sequence (Q9Z1P3 whole entry, the tested form may be a part): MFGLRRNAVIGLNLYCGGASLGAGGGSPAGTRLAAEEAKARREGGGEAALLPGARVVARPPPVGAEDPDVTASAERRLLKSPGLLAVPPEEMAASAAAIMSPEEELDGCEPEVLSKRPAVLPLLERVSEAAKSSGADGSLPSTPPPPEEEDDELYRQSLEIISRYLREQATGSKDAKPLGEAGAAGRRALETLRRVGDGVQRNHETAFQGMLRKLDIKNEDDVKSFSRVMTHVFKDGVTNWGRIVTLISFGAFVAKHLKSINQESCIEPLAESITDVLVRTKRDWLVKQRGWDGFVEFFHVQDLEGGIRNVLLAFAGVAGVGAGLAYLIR

B1: the binding result with Mcl-1 (rat) [1] was “binds”.
Consider B2, for which the binding result with Mcl-1 (rat) [2] is recorded as “no binding”.
Same read-out and setting: with B3 the entry was “no binding”.
With B4, in test [3], the binding result was “binds”.
Regarding B5, the binding result with Mcl-1 (rat) [2] is “no binding”.
On to B6, for which the binding result with Mcl-1 (rat) [4] and with BHRF1 was “no binding” each time.

For the origin of these results see patent US20040253629A1 (Stanford University, published 2004).
